Results as given in PMC9579051.

Target: PSI–LHCI as found in the chloroplast PSI–LHCI dimer (one monomer unit, without PsaH, PsaO and Lhca2) (Chlamydomonas reinhardtii) (UniProt P12154)
Test: cryo-EM structure; heavier green band of the sucrose gradient of affinity-purified PSI cross-linked with activated Pc; 1 mg chlorophyll/ml, vitrified at 4 °C; dimer refined with C2 symmetry, monomer with C1, focused classification on the Pc region

## PSI–LHCI as found in the chloroplast PSI–LHCI dimer (one monomer unit, without PsaH, PsaO and Lhca2) (from UniProt P12154 1-751; P09144 1-735; Q39615 36-196; P12352 25-97; P12356 63-227; P14224 31-126; P14225 27-113) (complex)
  stoichiometry N: 2
